Series [1] deals with preterm infants born before week 32 of gestational age. In words: Change in knee-to-heel length (knemometer), studies BVT.BSSL-020/-021. The following applies: FAS and PP, combined data and by study, one week of treatment. Type of series: in vivo, human. The protocol: The length of the patient's leg was measured from the knee to the heel using a knemometer provided to the sites. Knee-to-heel length was recorded in millimeters on the CRF. To the extent possible, length was measured at approximately the same time each day and by the same person. Three measurements were made and the mean value was entered on the CRF.
Combined Analysis: • The combined statistical analysis of CFA data used the overall CFA values as calculated for each infant/treatment-period from each of the two individual studies. • Change in length (mm): Change in length was defined as the change in length from knee to heel from Day 1 to Day 7 in the first period and Day 10 to Day 16 in the second period. The Exploratory Efficacy Variables were: • Absorption of DHA and AA: Coefficients of absorption of DHA (C22:6 n-3) and AA (C20:4 n-6) measured in feces samples collected during the final 3 days (72 hours) of each treatment period. • Coefficients of absorption of DHA and AA were calculated using the same approach as used for CFA calculations, but using only the amounts of the individual (C22:6 n-3) and (C20:4 n-6) in samples for DHA and AA, respectively. 7.5.2 Efficacy Analysis Methodology […]

For series [2] the test system is unchanged. The settings on record: in vivo.
Text: (§1) The adverse event (AE) reporting period in each study began upon administration of the first dose (Day 1) of investigational medication and ended at the Follow-up Visit (1 week±3 days after the last dose of study drug intake). All AEs that occurred in a patient during the adverse event reporting period were to be reported, whether or not the event was considered medication/product related. In addition, any known untoward event that occurred subsequent to the AE reporting period that the investigator assessed as possibly, probably, or definitely related to the investigational product were also to be reported as an AE.
(§2) MedDRA dictionary version 10.0 was used to classify all AEs reported during either study by system organ class (SOC) and preferred term (PT). All summary tables included counts of patients with treatment-emergent adverse events (TEAEs). The assessment of TEAEs was made in each individual study. […] All TEAEs, treatment related TEAEs (definite, probable, and possible), SAEs, and TEAEs leading to withdrawal of study drug were summarized by MedDRA SOC, PT, and treatment. Both the incidence (proportion of patients) and number of each TEAE were summarized. Additionally, TEAEs were summarized by maximum severity (mild, moderate, or severe). An overall summary of TEAEs was presented by treatment sequence and total and presented the number (%) of patients with TEAEs for each treatment sequence allocated to (1) BSSL only; (2) Placebo only; (3) Both BSSL and placebo; and (4) Neither Treatment.
A short description of series [3]: Specific activity with PNPB substrate, sodium cholate as bile-salt activator. Type of series: biochemical. The following applies: after HA-HPLC and SE-HPLC purification. The procedure:
Differences in functional properties are observed between rhBSSL-CHO and BSSL-MAM and from rhBSSL-OVI. The specific activity of rhBSSL-CHO is observed to be higher than that of the other forms of BSSL. The specific activities of BSSL-MAM and rhBSSL-OVI are only 80% of that of rhBSSL-CHO based on mass. Each sample is specifically purified by HA-HPLC and SE-HPLC before determination of specific activity. Specific activity is determined using 4-nitrophenyl ester butyric acid (PNPB) as a substrate for BSSL, and detection of the release of 4-nitrophenol. Briefly, a dilution series of rhBSSL (for example, from 20 to 160 ng activity/mL) is prepared in PBS with 0.1% BSA. 200 μl of these rhBSSL solutions is added to 25 μl of an activation solution containing 20 mM sodium cholate (as bile-salt activator) in PBS with 0.1% BSA. These solutions are preincubated in a spectrophotometer at 27° C. for 5 minutes. Just before measuring, 25 μl of a well-mixed substrate solution containing 5 mM PNPB in PBS-Tween is added. The formation of 4-nitrophenol can be detected by its absorbance at 400 nm and the increase in absorbance is measured during 90 seconds. The active amount of BSSL is determined using a standard curve of an rhBSSL reference standard.

Series [4] deals with preterm infants born before week 32 of gestational age. In words: Treatment-emergent adverse events, studies BVT.BSSL-020/-021.
Text: as §1, §2
Setting [5] is: Safety Analysis Set, rhBSSL N = 61.
Where [6] appears, read: TEAE, Safety Analysis Set, rhBSSL N = 61.

Entries after “also recorded” stand apart in the source; their conditions may differ.

B1: rhBSSL: recombinant human bile-salt-stimulated lipase, SEQ ID. NO. 1, expressed from recombinant CHO cells; used in both clinical trials (protein, listed as Homo sapiens)
chain: AKLGAVYTEGGFVEGVNKKLGLLGDSVDIFKGIPFAAPTKALENPQPHPGWQGTLKAKNFKKRCLQATITQDSTYGDEDCLYLNIWVPQGRKQVSRDLPVMIWIYGGAFLMGSGHGANFLNNYLYDGEEIATRGNVIVVTFNYRVGPLGFLSTGDANLPGNYGLRDQHMAIAWVKRNIAAFGGDPNNITLFGESAGGASVSLQTLSPYNKGLIRRAISQSGVALSPWVIQKNPLFWAKKVAEKVGCPVGDAARMAQCLKVTDPRALTLAYKVPLAGLEYPMLHYVGFVPVIDGDFIPADPINLYANAADIDYIAGTNNMDGHIFASIDMPAINKGNKKVTEEDFYKLVSEFTITKGLRGAKTTFDVYTESWAQDPSQENKKKTVVDFETDVLFLVPTEIALAQHRANAKSAKTYAYLFSHPSRMPVYPKWVGADHADDIQYVFGKPFATPTGYRPQDRTVSKAMIAYWTNFAKTGDPNMGDSAVPTHWEPYTTENSGYLEITKKMGSSSMKRSLRTNFLRYWTLTYLALPTVTDQEATPVPPTGDSEATPVPPTGDSETAPVPPTGDSGAPPVPPTGDSGAPPVPPTGDSGAPPVPPTGDSGAPPVPPTGDSGAPPVPPTGDSGAPPVPPTGDSGAPPVPPTGDAGPPPVPPTGDSGAPPVPPTGDSGAPPVTPTGDSETAPVPPTGDSGAPPVPPTGDSEAAPVPPTDDSKEAQMPAVIRF
Turning to B1, the “Change in knee-to-heel length, rhBSSL versus placebo” value in series [1] is reported as “No noticeable differences; also recorded: No difference”. For the same molecule, in series [2], the “Urinary tract infection, n (%) of Patients” value is on record as 1 (1.6%). Moreover, the “Specific activity compared with the other forms of BSSL” value in series [3] is “higher”. In addition, in series [4] (setting [5]), the “Patients who died, n (%) of Patients” value came to 0; the “Patients with any TEAE, n (%) of Patients” value was 29 (47.5%); the “Patients with any serious TEAE, n (%) of Patients” value was found to be 0; the “Patients with any severe TEAE, n (%) of Patients” value was 1 (1.6%). Moreover, in series [4] (setting [6]), the “Anemia neonatal, n (%) of Patients” value is given as 2 (3.3%); the “Anemia, n (%) of Patients” value is 3 (4.9%); the “Bradycardia, n (%) of Patients” value is on record as 1 (1.6%); the “Cardiac murmur, n (%) of Patients” value is listed as 4 (6.6%). For the same molecule, in series [4] (setting [6]), the “Dermatitis diaper, n (%) of Patients” value is reported as 13 (21.3%); the “Hypokalemia, n (%) of Patients” value is 3 (4.9%); the “Thrombocythemia, n (%) of Patients” value is recorded as 0. For the same molecule, in series [4] (preterm infants, combined analysis), the “Tolerability when added to infant formula or pasteurized breast milk” value was “well tolerated”.
